Measured values reported in patent publication US20200299407 (published 2020).

How the values were obtained:
[1] = molecular target: Her2 ECD (Pertuzumab KO)-Fc knob (human); experiment: SPR, 25C
[2] = molecular target: human transferrin receptor (human, UniProt P02786); experiment: SPR
[3] = molecular target: Her2 ECD (Trastuzumab KO)-Fc knob (human); experiment: SPR, 25C
[4] = molecular target: Her2 ECD (Trastuzumab KO)-Fc knob (human); experiment: SPR
[5] = molecular target: HER2 ECD (aa 1-629 mature) (human); experiment: SPR
[6] = molecular target: Her2 ECD (Pertuzumab KO)-Fc knob (human); experiment: SPR

human transferrin receptor, sequence (P02786 89-760): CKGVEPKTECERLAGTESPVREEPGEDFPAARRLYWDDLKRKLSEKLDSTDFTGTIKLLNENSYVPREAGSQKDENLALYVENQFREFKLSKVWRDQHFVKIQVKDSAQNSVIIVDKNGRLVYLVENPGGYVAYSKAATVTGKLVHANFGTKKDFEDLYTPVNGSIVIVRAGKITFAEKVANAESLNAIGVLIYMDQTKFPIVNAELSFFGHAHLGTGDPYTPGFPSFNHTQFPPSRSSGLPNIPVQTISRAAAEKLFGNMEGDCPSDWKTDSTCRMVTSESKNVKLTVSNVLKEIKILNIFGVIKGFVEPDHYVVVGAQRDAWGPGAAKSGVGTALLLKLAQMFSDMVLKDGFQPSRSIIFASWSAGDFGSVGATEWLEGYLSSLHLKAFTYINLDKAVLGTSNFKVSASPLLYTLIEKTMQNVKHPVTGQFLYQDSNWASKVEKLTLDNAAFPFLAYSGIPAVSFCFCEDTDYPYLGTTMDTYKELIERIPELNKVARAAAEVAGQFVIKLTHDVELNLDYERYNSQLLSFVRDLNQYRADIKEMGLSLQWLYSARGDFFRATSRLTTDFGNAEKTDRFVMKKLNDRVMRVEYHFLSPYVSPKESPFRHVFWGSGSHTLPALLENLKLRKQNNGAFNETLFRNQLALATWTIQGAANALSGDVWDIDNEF

Row | Kd [1] [nM] | Kd [3] [nM] | Binder | further results
1 | 0.8 |  | Herceptarg CrossMab Trastuzumab arm (antibody, V domains shown) VH: QVQLVQSGAEVKKPGASVKVSCKASGFNIKDTYIHWVRQAPGQGLEWMGRIYPTNGYTRYAQKFQGRVTMTRDTSISTAYMELSRLRSDDTAVYYCSRWGGEGFYAMDYWGQGTMVTVSS VL: DIQLTQPPSVSVAPGQTARITCGASQDVSTAVAWYQQKPGQAPVLVVYSASFLYSGIPSRFSGSRSGTDFTLTISRVEAGDEADYYCQQHYTTPPTFGTGTKVTVLR | 
2 |  |  | VH23-DANG/VL0(rb) (antibody, V domains shown) VH: QSMQESGPGLVKPSQTLSLTCTVSGFSLSSYAMSWIRQHPGKGLEWIGYIWSGGSTDYASWAKSRVTISKTSTTVSLKLSSVTAADTAVYYCARRYGTSYPDYGDANGFDPWGQGTLVTVSS VL: AYDMTQTPASVEVAVGGTVTIKCQASQSISSYLSWYQQKPGQRPKLLIYRASTLASGVSSRFKGSGSGTQFTLTISGVECADAATYYCQQCYSSSNVDNTFGGGTEVVVKR | koff [2]: 0.000338 s⁻¹
3 |  | 0.84 | Herceptarg CrossMab Pertuzumab arm (antibody) chain 1: not shown chain 2: DIQMTQSPSSLSASVGDRVTITCKASQDVSIGVAWYQQKPGKAPKLLIYSASYRYTGVPSRFSGSGSGTDFTLTISSLQPEDFATYYCQQYYIYPYTFGQGTKVEIKSSASTKGPSVFPLAPSSKSTSGGTAALGCLVKDYFPEPVTVSWNSGALTSGVHTFPAVLQSSGLYSLSSVVTVPSSSLGTQTYICNVNHKPSNTKVDKKVEPKSC | 
4 |  |  | Pertuzumab (antibody) chain 1: EVQLVESGGGLVQPGGSLRLSCAASGFTFTDYTMDWVRQAPGKGLEWVADVNPNSGGSIYNQRFKGRFTLSVDRSKNTLYLQMNSLRAEDTAVYYCARNLGPSFYFDYWGQGTLVTVSS chain 2: DIQMTQSPSSLSASVGDRVTITCKASQDVSIGVAWYQQKPGKAPKLLIYSASYRYTGVPSRFSGSGSGTDFTLTISSLQPEDFATYYCQQYYIYPYTFGQGTKVEIK | Kd [4]: 0.62 nM; Kd [5]: 0.147 nM; binding result [6]: no binding
5 | 0.72 |  | Herceptarg CLC Trastuzumab arm (E1) (antibody, V domains shown) VH: not shown VL: DIQMTQSPSSLSASVGDRVTITCKASQDVSTAVAWYQQKPGKAPKLLIYSASFRYTGVPSRFSGSRSGTDFTLTISSLQPEDFATYYCQQHYTTPPTFGQGTKVEIK | 
6 |  | 1.32 | Herceptarg E1 Pertuzumab arm (antibody, V domains shown) VH: EVQLVESGGGLVQPGGSLRLSCAASGFTFADYTMDWVRQAPGKGLEWVADVNPNSGGSIYNQRFKGRFTLSVDRSKNTLYLQMNSLRAEDTAVYYCARNLGPWFYFDYWGQGTLVTVSS VL: DIQMTQSPSSLSASVGDRVTITCKASQDVSTAVAWYQQKPGKAPKLLIYSASFRYTGVPSRFSGSRSGTDFTLTISSLQPEDFATYYCQQHYTTPPTFGQGTKVEIK | 
7 |  | 0.16 | Herceptarg D1-derived Pertuzumab arm (antibody, V domains shown) VH: EVQLVESGGGLVQPGGSLRLSCAASGFTFNDYTMDWVRQAPGKGLEWVADVNPNSGGSIVNRRFKGRFTLSVDRSKNTLYLQMNSLRAEDTAVYYCARNLGPFFYFDYWGQGTLVTVSS VL: DIQMTQSPSSLSASVGDRVTITCKASQDVSTAVAWYQQKPGKAPKLLIYSASFRYTGVPSRFSGSRSGTDFTLTISSLQPEDFATYYCQQHYTTPPTFGQGTKVEIK | 
8 |  | 9.65 | Herceptarg G2 Pertuzumab arm (antibody, V domains shown) VH: EVQLVESGGGLVQPGGSLRLSCAASGFTFTDYTMDWVRQAPGKGLEWVADVNPNSGGYIVNRRFKGRFTLSVDRSKNTLYLQMNSLRAEDTAVYYCARNLGPSFYFDYWGQGTLVTVSS VL: DIQMTQSPSSLSASVGDRVTITCKASQDVSTAVAWYQQKPGKAPKLLIYSASFRYTGVPSRFSGSRSGTDFTLTISSLQPEDFATYYCQQHYTTPPTFGQGTKVEIK | 
9 | 0.6 |  | Herceptarg D1-derived Trastuzumab arm (antibody, V domains shown) VH: not shown VL: DIQMTQSPSSLSASVGDRVTITCKASQDVSTAVAWYQQKPGKAPKLLIYSASFRYTGVPSRFSGSRSGTDFTLTISSLQPEDFATYYCQQHYTTPPTFGQGTKVEIK | 
10 | 1.82 |  | Herceptarg G2 Trastuzumab arm (antibody, V domains shown) VH: not shown VL: DIQMTQSPSSLSASVGDRVTITCKASQDVSTAVAWYQQKPGKAPKLLIYSASFRYTGVPSRFSGSRSGTDFTLTISSLQPEDFATYYCQQHYTTPPTFGQGTKVEIK | 
